The data set deals with the molecule itself. Nature of the data set: cryo-EM structure; Dmc1 (2.5 uM) with 0.125 uM 96-mer ssDNA in HR buffer with 1.5 mM CaCl2 and 5 mM ADP, 30 °C, 5 min, then 8 mM CHAPSO; interdigitated filaments deconvolved into single filaments; filament formation required the ssDNA.

B1: Saccharomyces cerevisiae Dmc1 (natural protein, S. cerevisiae)
chain: MSVTGTEIDSDTAKNILSVDELQNYGINASDLQKLKSGGIYTVNTVLSTTRRHLCKIKGLSEVKVEKIKEAAGKIIQVGFIPATVQLDIRQRVYSLSTGSKQLDSILGGGIMTMSITEVFGEFRCGKTQMSHTLCVTTQLPREMGGGEGKVAYIDTEGTFRPERIKQIAEGYELDPESCLANVSYARALNSEHQMELVEQLGEELSSGDYRLIVVDSIMANFRVDYCGRGELSERQQKLNQHLFKLNRLAEEFNVAVFLTNQVQSDPGASALFASADGRKPIGGHVLAHASATRILLRKGRGDERVAKLQDSPDMPEKECVYVIGEKGITDSSD
notes: Dmc1, S. cerevisiae, expressed from a plasmid encoding 6XHisDmc1; Stood as a helical filament assembled with a 96-mer ssDNA, ADP, Mg2+ and Ca2+; six protomers were modelled; No removal of the His tag is described; The N-terminal end of the tag is read from the printed name 6XHisDmc1; also called Dmc1-ADP; source: E. coli BL21 (DE3) Rosetta2, purified (Talon resin, heparin sepharose)
B1: the binding result is recorded as “binds”.

The values are drawn from paper PMC12409439 (The Journal of Biological Chemistry, 2025).
